{
  "source": "paper PMC3433420",
  "origin": "cited, not measured here",
  "settings_in_all_cases": "cited from earlier work",
  "key": {"[1]": {"molecular_target": "NCK2 (Homo sapiens) (UniProt O43639)", "sequence (O43639 280-380)": "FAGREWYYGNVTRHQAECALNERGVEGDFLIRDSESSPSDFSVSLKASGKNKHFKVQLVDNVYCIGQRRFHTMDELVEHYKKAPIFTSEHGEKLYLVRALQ"}, "[2]": {"molecular_target": "YES1 (Homo sapiens) (UniProt P07947)", "sequence (P07947 153-260)": "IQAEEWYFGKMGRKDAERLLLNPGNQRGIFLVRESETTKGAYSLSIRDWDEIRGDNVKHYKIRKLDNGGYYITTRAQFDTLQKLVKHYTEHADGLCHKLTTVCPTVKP"}, "[3]": {"molecular_target": "GRB7 (Homo sapiens) (UniProt Q14451)", "sequence (Q14451 426-532)": "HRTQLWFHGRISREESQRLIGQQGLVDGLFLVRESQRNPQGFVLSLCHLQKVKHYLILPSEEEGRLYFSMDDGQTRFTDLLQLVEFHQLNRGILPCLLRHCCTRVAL"}, "[4]": {"molecular_target": "GRB10 (Homo sapiens) (UniProt Q13322)", "sequence (Q13322 488-579)": "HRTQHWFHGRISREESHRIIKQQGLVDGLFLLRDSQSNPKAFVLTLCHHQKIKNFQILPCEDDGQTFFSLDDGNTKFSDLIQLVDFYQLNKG"}, "[5]": {"molecular_target": "ITK (Homo sapiens) (UniProt Q08881)", "sequence (Q08881 234-343)": "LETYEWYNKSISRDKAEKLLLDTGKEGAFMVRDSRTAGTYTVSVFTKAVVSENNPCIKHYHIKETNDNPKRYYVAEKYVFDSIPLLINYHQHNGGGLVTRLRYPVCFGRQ"}, "[6]": {"molecular_target": "SYK-C (Homo sapiens) (UniProt P43405)"}, "[7]": {"molecular_target": "RASA1-N (Homo sapiens) (UniProt P20936)", "sequence (P20936 176-446)": "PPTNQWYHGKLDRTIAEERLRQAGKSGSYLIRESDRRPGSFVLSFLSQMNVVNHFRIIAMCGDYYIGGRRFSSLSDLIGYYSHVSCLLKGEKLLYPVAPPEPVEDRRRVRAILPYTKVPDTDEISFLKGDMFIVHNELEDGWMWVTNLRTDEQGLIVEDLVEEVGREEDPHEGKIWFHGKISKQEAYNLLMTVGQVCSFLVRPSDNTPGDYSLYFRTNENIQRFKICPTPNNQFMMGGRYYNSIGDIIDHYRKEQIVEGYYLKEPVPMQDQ"}, "[8]": {"molecular_target": "ABL1 (Homo sapiens) (UniProt P00519)", "sequence (P00519 122-222)": "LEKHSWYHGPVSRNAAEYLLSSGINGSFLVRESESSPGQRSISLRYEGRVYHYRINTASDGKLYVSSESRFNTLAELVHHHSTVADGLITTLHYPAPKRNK"}, "[9]": {"molecular_target": "PIK3R2-N (Homo sapiens) (UniProt O00459)", "sequence (O00459 325-721)": "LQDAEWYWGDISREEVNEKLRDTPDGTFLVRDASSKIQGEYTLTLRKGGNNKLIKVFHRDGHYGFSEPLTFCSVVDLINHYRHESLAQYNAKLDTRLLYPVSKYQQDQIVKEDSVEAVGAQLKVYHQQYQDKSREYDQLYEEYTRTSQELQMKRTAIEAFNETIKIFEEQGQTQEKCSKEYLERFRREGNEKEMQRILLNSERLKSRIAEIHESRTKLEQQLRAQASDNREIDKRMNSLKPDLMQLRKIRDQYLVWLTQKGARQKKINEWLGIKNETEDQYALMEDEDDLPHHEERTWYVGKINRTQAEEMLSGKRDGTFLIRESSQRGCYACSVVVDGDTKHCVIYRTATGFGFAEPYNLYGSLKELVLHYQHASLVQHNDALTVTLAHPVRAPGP"}, "[10]": {"molecular_target": "VAV2 (Homo sapiens) (UniProt P52735)", "sequence (P52735 668-772)": "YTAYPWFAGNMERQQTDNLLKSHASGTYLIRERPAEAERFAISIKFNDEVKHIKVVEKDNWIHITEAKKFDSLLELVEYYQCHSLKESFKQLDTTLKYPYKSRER"}, "[11]": {"molecular_target": "SRC (Homo sapiens) (UniProt P12931)"}, "[12]": {"molecular_target": "PIK3R1-NC (Homo sapiens) (UniProt P27986)", "sequence (P27986 328-723)": "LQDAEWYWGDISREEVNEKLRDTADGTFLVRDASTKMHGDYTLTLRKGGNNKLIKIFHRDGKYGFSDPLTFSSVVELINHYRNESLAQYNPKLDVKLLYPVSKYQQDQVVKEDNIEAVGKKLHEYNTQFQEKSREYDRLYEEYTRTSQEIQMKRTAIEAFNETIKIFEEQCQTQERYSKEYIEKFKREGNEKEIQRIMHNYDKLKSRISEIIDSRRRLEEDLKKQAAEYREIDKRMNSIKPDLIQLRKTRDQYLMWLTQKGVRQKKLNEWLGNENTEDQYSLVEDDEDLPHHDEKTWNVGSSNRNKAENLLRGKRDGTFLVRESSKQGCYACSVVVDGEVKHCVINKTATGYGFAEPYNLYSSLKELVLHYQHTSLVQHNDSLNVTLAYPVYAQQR"}, "[13]": {"molecular_target": "SYK-NC (Homo sapiens) (UniProt P43405)"}, "[14]": {"molecular_target": "PLCG2-NC (Homo sapiens) (UniProt P16885)", "sequence (P16885 527-740)": "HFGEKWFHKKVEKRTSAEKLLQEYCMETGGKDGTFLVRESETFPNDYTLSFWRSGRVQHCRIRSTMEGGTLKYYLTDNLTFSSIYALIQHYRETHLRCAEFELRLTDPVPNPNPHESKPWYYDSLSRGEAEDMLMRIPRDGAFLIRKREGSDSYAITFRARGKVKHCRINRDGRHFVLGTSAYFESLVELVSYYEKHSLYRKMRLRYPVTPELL"}, "[15]": {"molecular_target": "PIK3R2-NC (Homo sapiens) (UniProt O00459)", "sequence (O00459 325-721)": "as the sequence (O00459 325-721) above"}, "[16]": {"molecular_target": "PIK3R3-N (Homo sapiens) (UniProt Q92569)"}, "[17]": {"molecular_target": "PIK3R1-N (Homo sapiens) (UniProt P27986)", "sequence (P27986 328-723)": "as the sequence (P27986 328-723) above"}, "[18]": {"molecular_target": "PIK3R3-NC (Homo sapiens) (UniProt Q92569)"}, "[19]": {"molecular_target": "BLK (Homo sapiens) (UniProt P51451)", "sequence (P51451 119-225)": "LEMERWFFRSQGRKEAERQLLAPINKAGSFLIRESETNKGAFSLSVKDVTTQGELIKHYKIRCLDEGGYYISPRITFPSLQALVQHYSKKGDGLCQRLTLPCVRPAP"}, "[20]": {"molecular_target": "GRB2 (Homo sapiens) (UniProt P62993)", "sequence (P62993 55-157)": "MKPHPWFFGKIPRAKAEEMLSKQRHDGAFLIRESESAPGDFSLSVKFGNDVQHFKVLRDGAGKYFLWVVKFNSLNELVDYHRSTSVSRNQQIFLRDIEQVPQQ"}, "[21]": {"molecular_target": "ABL2 (Homo sapiens) (UniProt P42684)", "sequence (P42684 168-268)": "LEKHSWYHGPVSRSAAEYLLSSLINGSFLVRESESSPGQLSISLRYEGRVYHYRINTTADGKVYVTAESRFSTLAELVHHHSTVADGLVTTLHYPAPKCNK"}, "[22]": {"molecular_target": "ABL2 (Homo sapiens) (UniProt P42684)", "remark": "listed apart in the source"}, "[23]": {"molecular_target": "ABL2 (Homo sapiens) (UniProt P42684)", "remark": "listed apart in the source"}, "[24]": {"molecular_target": "BLK (Homo sapiens) (UniProt P51451)", "remark": "listed apart in the source"}, "[25]": {"molecular_target": "NCK2 (Homo sapiens) (UniProt O43639)", "remark": "listed apart in the source"}, "[26]": {"molecular_target": "PIK3R3-N (Homo sapiens) (UniProt Q92569)", "remark": "listed apart in the source"}, "[27]": {"molecular_target": "ITK (Homo sapiens) (UniProt Q08881)", "remark": "listed apart in the source"}, "[28]": {"molecular_target": "PIK3R2-NC (Homo sapiens) (UniProt O00459)", "remark": "listed apart in the source"}, "[29]": {"molecular_target": "SHC1-PTB (Homo sapiens) (UniProt P29353)", "sequence (P29353 483-583)": "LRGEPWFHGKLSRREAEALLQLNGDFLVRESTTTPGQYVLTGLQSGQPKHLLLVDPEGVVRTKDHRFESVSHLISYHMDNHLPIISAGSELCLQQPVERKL"}, "[30]": {"molecular_target": "GRB2 (Homo sapiens) (UniProt P62993)", "remark": "listed apart in the source"}, "[31]": {"molecular_target": "ABL2 (Homo sapiens) (UniProt P42684)", "remark": "listed apart in the source"}, "[32]": {"molecular_target": "ABL2 (Homo sapiens) (UniProt P42684)", "remark": "listed apart in the source"}, "[33]": {"molecular_target": "PIK3R2-N (Homo sapiens) (UniProt O00459)", "remark": "listed apart in the source"}, "[34]": {"molecular_target": "RASA1-N (Homo sapiens) (UniProt P20936)", "remark": "listed apart in the source"}, "[35]": {"molecular_target": "ZAP70-NC (Homo sapiens) (UniProt P43403)", "sequence (P43403 5-259)": "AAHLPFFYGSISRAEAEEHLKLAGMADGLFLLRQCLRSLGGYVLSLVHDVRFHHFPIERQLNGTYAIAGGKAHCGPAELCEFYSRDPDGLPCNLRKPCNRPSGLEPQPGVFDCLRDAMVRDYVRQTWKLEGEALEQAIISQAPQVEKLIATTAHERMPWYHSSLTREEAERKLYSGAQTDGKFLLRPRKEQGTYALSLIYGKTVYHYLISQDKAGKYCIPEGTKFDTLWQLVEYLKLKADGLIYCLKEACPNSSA"}, "[36]": {"molecular_target": "PIK3R3-NC (Homo sapiens) (UniProt Q92569)", "remark": "listed apart in the source"}, "[37]": {"molecular_target": "SHC1-PTB (Homo sapiens) (UniProt P29353)", "remark": "listed apart in the source"}, "[38]": {"molecular_target": "GRB2 (Homo sapiens) (UniProt P62993)", "remark": "listed apart in the source"}, "[39]": {"molecular_target": "PIK3R1-NC (Homo sapiens) (UniProt P27986)", "remark": "listed apart in the source"}, "[40]": {"molecular_target": "VAV2 (Homo sapiens) (UniProt P52735)", "remark": "listed apart in the source"}, "[41]": {"molecular_target": "PIK3R3-NC (Homo sapiens) (UniProt Q92569)", "remark": "listed apart in the source"}, "[42]": {"molecular_target": "SHC1-PTB (Homo sapiens) (UniProt P29353)", "remark": "listed apart in the source"}, "[43]": {"molecular_target": "ABL2 (Homo sapiens) (UniProt P42684)", "remark": "listed apart in the source"}, "[44]": {"molecular_target": "ABL1 (Homo sapiens) (UniProt P00519)", "remark": "listed apart in the source"}, "[45]": {"molecular_target": "ABL2 (Homo sapiens) (UniProt P42684)", "remark": "listed apart in the source"}, "[46]": {"molecular_target": "NCK2 (Homo sapiens) (UniProt O43639)", "remark": "listed apart in the source"}, "[47]": {"molecular_target": "SHC1-PTB (Homo sapiens) (UniProt P29353)", "remark": "listed apart in the source"}},
  "note": "Where two headings read alike, the source gives them in different places.",
  "data": [
    {"substance": "…pYINQSVPKd", "values": [
      {"measurement": "apparent Kd (screen)", "setting": "[1]", "value": 1100, "unit": "nM"},
      {"measurement": "apparent Kd (screen)", "setting": "[2]", "value": 337, "unit": "nM"},
      {"measurement": "apparent Kd (screen)", "setting": "[3]", "value": 1980, "unit": "nM"},
      {"measurement": "apparent Kd (screen)", "setting": "[4]", "value": 1300, "unit": "nM"},
      {"measurement": "apparent Kd (screen)", "setting": "[5]", "value": 219, "unit": "nM"},
      {"measurement": "apparent Kd (screen)", "setting": "[6]", "value": 1920, "unit": "nM"},
      {"measurement": "apparent Kd (screen)", "setting": "[7]", "value": 180, "unit": "nM"},
      {"measurement": "apparent Kd (screen)", "setting": "[8]", "value": 916, "unit": "nM"},
      {"measurement": "apparent Kd (screen)", "setting": "[9]", "value": 453, "unit": "nM"},
      {"measurement": "apparent Kd (screen)", "setting": "[10]", "value": 542, "unit": "nM"},
      {"measurement": "apparent Kd (screen)", "setting": "[11]", "value": 1790, "unit": "nM"},
      {"measurement": "apparent Kd (screen)", "setting": "[12]", "value": 670, "unit": "nM"},
      {"measurement": "apparent Kd (screen)", "setting": "[13]", "value": 908, "unit": "nM"},
      {"measurement": "apparent Kd (screen)", "setting": "[14]", "value": 1630, "unit": "nM"},
      {"measurement": "apparent Kd (screen)", "setting": "[15]", "value": 1410, "unit": "nM"},
      {"measurement": "apparent Kd (screen)", "setting": "[16]", "value": 507, "unit": "nM"},
      {"measurement": "apparent Kd (screen)", "setting": "[17]", "value": 1080, "unit": "nM"},
      {"measurement": "apparent Kd (screen)", "setting": "[18]", "value": 1020, "unit": "nM"},
      {"measurement": "apparent Kd (screen)", "setting": "[19]", "value": 300, "unit": "nM"},
      {"measurement": "apparent Kd (screen)", "setting": "[20]", "value": 198, "unit": "nM"},
      {"measurement": "apparent Kd (screen)", "setting": "[21]", "value": 152, "unit": "nM"}
    ]},
    {"substance": "…pYHAEGGKVd", "values": [
      {"measurement": "apparent Kd (screen)", "setting": "[22]", "value": 2000, "unit": "nM"},
      {"measurement": "apparent Kd (screen)", "setting": "[23]", "value": 1080, "unit": "nM"},
      {"measurement": "apparent Kd (screen)", "setting": "[24]", "value": 1710, "unit": "nM"}
    ]},
    {"substance": "…pYLNTVQPTd", "values": [
      {"measurement": "apparent Kd (screen)", "setting": "[25]", "value": 326, "unit": "nM"},
      {"measurement": "apparent Kd (screen)", "setting": "[26]", "value": 838, "unit": "nM"},
      {"measurement": "apparent Kd (screen)", "setting": "[27]", "value": 1760, "unit": "nM"},
      {"measurement": "apparent Kd (screen)", "setting": "[28]", "value": 857, "unit": "nM"},
      {"measurement": "apparent Kd (screen)", "setting": "[29]", "value": 133, "unit": "nM"},
      {"measurement": "apparent Kd (screen)", "setting": "[30]", "value": 422, "unit": "nM"},
      {"measurement": "apparent Kd (screen)", "setting": "[31]", "value": 120, "unit": "nM"},
      {"measurement": "apparent Kd (screen)", "setting": "[32]", "value": 85, "unit": "nM"},
      {"measurement": "apparent Kd (screen)", "setting": "[33]", "value": 763, "unit": "nM"},
      {"measurement": "apparent Kd (screen)", "setting": "[34]", "value": 388, "unit": "nM"},
      {"measurement": "apparent Kd (screen)", "setting": "[35]", "value": 1140, "unit": "nM"},
      {"measurement": "apparent Kd (screen)", "setting": "[36]", "value": 1690, "unit": "nM"},
      {"measurement": "apparent Kd (screen)", "setting": "[37]", "value": 173, "unit": "nM"},
      {"measurement": "apparent Kd (screen)", "setting": "[38]", "value": 724, "unit": "nM"},
      {"measurement": "apparent Kd (screen)", "setting": "[39]", "value": 1570, "unit": "nM"},
      {"measurement": "apparent Kd (screen)", "setting": "[40]", "value": 373, "unit": "nM"}
    ]},
    {"substance": "…pYHNASNGPd", "values": [
      {"measurement": "apparent Kd (screen)", "setting": "[41]", "value": 2000, "unit": "nM"},
      {"measurement": "apparent Kd (screen)", "setting": "[42]", "value": 277, "unit": "nM"},
      {"measurement": "apparent Kd (screen)", "setting": "[43]", "value": 35, "unit": "nM"},
      {"measurement": "apparent Kd (screen)", "setting": "[44]", "value": 1820, "unit": "nM"},
      {"measurement": "apparent Kd (screen)", "setting": "[45]", "value": 755, "unit": "nM"},
      {"measurement": "apparent Kd (screen)", "setting": "[46]", "value": 2000, "unit": "nM"},
      {"measurement": "apparent Kd (screen)", "setting": "[47]", "value": 717, "unit": "nM"}
    ]}
  ]
}
